# T1: human B7H4, full length, on cells (human, UniProt Q7Z7D3 25-282)
# T1 construct: Uniprot Q7Z7D3; Used for transfected HEK cells and for the B7H4-expressing human tumor cell lines (endogenous B7H4); also called VTCN1
# T1 sequence: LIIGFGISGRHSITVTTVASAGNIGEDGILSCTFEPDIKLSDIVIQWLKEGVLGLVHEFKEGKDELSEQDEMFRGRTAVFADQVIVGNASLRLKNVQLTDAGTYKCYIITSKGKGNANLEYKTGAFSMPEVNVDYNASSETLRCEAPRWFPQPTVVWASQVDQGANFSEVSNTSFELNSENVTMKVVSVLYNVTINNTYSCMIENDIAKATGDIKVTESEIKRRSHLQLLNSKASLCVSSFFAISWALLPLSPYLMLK
# T2: recombinant hIgG1 Fc-tagged cynomolgus monkey B7H4 (Creative BioMart, cat. no. VTCN1-1517R) (cynomolgus monkey, UniProt Q7Z7D3 25-259 (human entry))
# T2 construct: Bought protein; also called cynomolgus monkey B7H4 extracellular domain
# T2 sequence: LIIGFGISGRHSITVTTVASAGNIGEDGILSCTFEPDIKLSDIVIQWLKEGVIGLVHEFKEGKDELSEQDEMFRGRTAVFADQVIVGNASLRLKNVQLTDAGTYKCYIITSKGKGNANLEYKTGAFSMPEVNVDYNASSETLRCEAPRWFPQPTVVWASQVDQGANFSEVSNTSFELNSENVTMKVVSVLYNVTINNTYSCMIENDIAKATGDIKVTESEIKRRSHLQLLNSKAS
# T3: B7H4-IgV/B7H3-IgC
# T3 construct: also called chimeric molecule with the IgV domain of B7H4 and the IgC domain of B7H3
# T3 full-length chimeric protein on cells: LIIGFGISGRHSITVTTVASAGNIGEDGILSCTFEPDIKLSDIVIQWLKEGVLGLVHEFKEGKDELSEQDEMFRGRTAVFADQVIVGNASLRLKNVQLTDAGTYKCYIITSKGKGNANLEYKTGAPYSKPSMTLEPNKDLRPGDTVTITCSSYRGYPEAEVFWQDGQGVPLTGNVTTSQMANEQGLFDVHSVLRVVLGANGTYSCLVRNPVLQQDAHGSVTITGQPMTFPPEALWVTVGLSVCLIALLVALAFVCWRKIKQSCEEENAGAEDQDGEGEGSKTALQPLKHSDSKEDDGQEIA
# T4: B7H3
# T4 construct: also called human B7H3
# T4 full-length protein on cells: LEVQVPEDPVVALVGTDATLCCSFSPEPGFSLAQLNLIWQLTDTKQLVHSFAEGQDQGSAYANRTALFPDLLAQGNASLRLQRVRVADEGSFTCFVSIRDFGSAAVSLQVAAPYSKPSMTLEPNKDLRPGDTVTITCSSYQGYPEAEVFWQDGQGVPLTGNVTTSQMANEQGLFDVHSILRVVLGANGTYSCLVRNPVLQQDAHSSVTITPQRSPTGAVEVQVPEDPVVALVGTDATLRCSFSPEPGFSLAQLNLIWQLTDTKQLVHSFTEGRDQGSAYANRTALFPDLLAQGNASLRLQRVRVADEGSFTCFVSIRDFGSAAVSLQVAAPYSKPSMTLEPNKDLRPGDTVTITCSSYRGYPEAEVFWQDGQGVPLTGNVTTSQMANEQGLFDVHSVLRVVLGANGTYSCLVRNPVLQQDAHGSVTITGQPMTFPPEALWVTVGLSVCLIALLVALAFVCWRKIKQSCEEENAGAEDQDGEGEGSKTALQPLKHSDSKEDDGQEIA
# B1: antibody B7H4-C1 (antibody, V domains shown)
# VH: QVQLQQWGAGLLKPSETLSLTCAVYGGSFSGYYWSWIRQPPGKGLEWIGEINHSGSTNYNPSLKSRVTISIDTSKNQFSLKLTSVTAADTAVFYCARGLFNWNFDSWGQGTLVTVSS
# VL: DIQMTQSPSSLSASVGDRVTITCRASQGIRNDLGWYQQKPGKAPKRLIYGASSLQSGVPSRFSGSGSGTEFTLTISSLQPEDFATYYCLQHNSYPRTFGQGTTVEIKR
# notes: Parent of B7H4-C1-N52S
# B2: bsIgG1-huCD3-H101G-FEALxB7H4-C5-FEAR (bispecific antibody)
# heavy 1: not shown
# light 1: not shown
# heavy 2: QLQLQESGPGLVKPSETLSLTCTVSGGSIKSGSYYWGWIRQPPGKGLEWIGNIYYSGSTYYNPSLRSRVTISVDTSKNQFSLKLSSVTAADTAVYYCAREGSYPNQFDPWGQGTLVTVSSASTKGPSVFPLAPSSKSTSGGTAALGCLVKDYFPEPVTVSWNSGALTSGVHTFPAVLQSSGLYSLSSVVTVPSSSLGTQTYICNVNHKPSNTKVDKRVEPKSCDKTHTCPPCPAPEFEGGPSVFLFPPKPKDTLMISRTPEVTCVVVAVSHEDPEVKFNWYVDGVEVHNAKTKPREEQYNSTYRVVSVLTVLHQDWLNGKEYKCKVSNKALPAPIEKTISKAKGQPREPQVYTLPPSREEMTKNQVSLTCLVKGFYPSDIAVEWESNGQPENNYKTTPPVLDSDGSFFLYSRLTVDKSRWQQGNVFSCSVMHEALHNHYTQKSLSLSPGK
# light 2: not shown
# notes: also called bslgG1-huCD3-H101G-FEALxB7H4-C5-FEAR
# B3: bsIgG1-huCD3-FEALxB7H4-C1-N52S-FEAR (bispecific antibody)
# heavy 1: not shown
# light 1: not shown
# heavy 2: QVQLQQWGAGLLKPSETLSLTCAVYGGSFSGYYWSWIRQPPGKGLEWIGEISHSGSTNYNPSLKSRVTISIDTSKNQFSLKLTSVTAADTAVFYCARGLFNWNFDSWGQGTLVTVSSASTKGPSVFPLAPSSKSTSGGTAALGCLVKDYFPEPVTVSWNSGALTSGVHTFPAVLQSSGLYSLSSVVTVPSSSLGTQTYICNVNHKPSNTKVDKRVEPKSCDKTHTCPPCPAPEFEGGPSVFLFPPKPKDTLMISRTPEVTCVVVAVSHEDPEVKFNWYVDGVEVHNAKTKPREEQYNSTYRVVSVLTVLHQDWLNGKEYKCKVSNKALPAPIEKTISKAKGQPREPQVYTLPPSREEMTKNQVSLTCLVKGFYPSDIAVEWESNGQPENNYKTTPPVLDSDGSFFLYSRLTVDKSRWQQGNVFSCSVMHEALHNHYTQKSLSLSPGK
# light 2: DIQMTQSPSSLSASVGDRVTITCRASQGIRNDLGWYQQKPGKAPKRLIYGASSLQSGVPSRFSGSGSGTEFTLTISSLQPEDFATYYCLQHNSYPRTFGQGTTVEIKRTVAAPSVFIFPPSDEQLKSGTASVVCLLNNFYPREAKVQWKVDNALQSGNSQESVTEQDSKDSTYSLSSTLTLSKADYEKHKVYACEVTHQGLSSPVTKSFNRGEC
# notes: also called bslgG1-huCD3-FEALxB7H4-C1-N52S-FEAR; CD3xB7H4
# Key:
# [1] = target: T1, human B7H4, full length, on cells; assay: binding to tumor cells, as CD3 bispecific (monovalent) and IgG1 (bivalent)
# [2] = target: T2, recombinant hIgG1 Fc-tagged cynomolgus …; assay: BLI (Octet HTX); Fc-tagged cynomolgus B7H4 coupled to AR2G sensor, bispecific antibody in solution (monovalent B7H4 binding); 2nd experiment (R^2 0.97, below the 0.98 threshold)
# Protocol: (§1) In addition, the affinity of for cynomolgus monkey B7H4 was determined by BLI. […] Amine Reactive 2nd Generation (AR2G) biosensors (FortéBio, cat. no. 18-5092) were activated by reaction with 20 mM EDC (N-(3-Dimethylaminopropyl)-N′-ethylcarbodiimide hydrochloride) (FortéBio, cat. no. 18-1033) and 10 mM s-NHS (N-hydroxysulfosuccinimide sodium salt) (FortéBio, cat. no. 18-1067) for 300 s. The activated sensors were loaded with 10 μg/mL recombinant hIgG1 Fc-tagged cynomolgus monkey B7H4 (Creative BioMart, cat. no. VTCN1-1517R) in 10 mM Sodium Acetate pH 4.0 (FortéBio, cat. no. 18-1068) for 600 s and quenched with 1 M ethanolamine pH 8.5 (FortéBio, cat. no. 18-1071) for 300 s. […] A molecular mass of 150 kDa of the antibodies was used for calculations. For each antibody a reference sensor was used, which was incubated with Sample Diluent instead of antibody.
# (§2) Data were acquired using Data Acquisition Software v9.0.0.49d (FortéBio) and analyzed with Data Analysis Software v9.0.0.12 (FortéBio). Data traces were corrected per antibody by subtraction of the reference sensor. The Y-axis was aligned to the last 10 s of the baseline, Interstep Correction alignment to dissociation and Savitzky-Golay filtering were applied. Data traces with a response<0.05 nm were excluded from analysis. […]
# [3] = target: T1, human B7H4, full length, on cells; assay: flow cytometry on MDA-MB-468 tumor cells [MDA-MB-468 right panel]
# Protocol: (§3) Cells (3×10⁴ cells/well) were incubated in polystyrene 96-well round-bottom plates (Greiner bio-one, cat. no. 650180) with serial dilutions of antibodies (ranging from 0.000458 to 30 μg/mL in 4-fold dilution steps) in 100 μL PBS/0.1% BSA/0.02% azide (staining buffer) at 4° C. for 30 min. Experiments were performed in technical duplicate. After washing twice in staining buffer, cells were incubated in 50 μL secondary antibody at 4° C. for 30 min. As a secondary antibody, R-Phycoerythrin (PE)-conjugated goat-anti-human IgG F(ab′)₂ (1:500 in FACS buffer; Jackson ImmunoResearch Laboratories, Inc., West Grove, PA, cat. no. 109-116-098), was used. Cells were washed twice in staining buffer, re-suspended in 30 μL FACS buffer containing Topro-3 (1:10,000 dilution) and analyzed on an iQue Screener (Intellicyt Corporation, USA). Binding curves were analyzed using non-linear regression (sigmoidal dose-response with variable slope) using GraphPad Prism V7.02 software (GraphPad Software, San Diego, CA, USA).
# (§4) Binding was analyzed by flow cytometry as described above.
# [4] = target: T2, recombinant hIgG1 Fc-tagged cynomolgus …; assay: BLI (Octet HTX); Fc-tagged cynomolgus B7H4 coupled to AR2G sensor, bispecific antibody in solution (monovalent B7H4 binding); 2nd experiment (R^2 0.97, below the 0.98 threshold); R^2 0.97, below the 0.98 quality threshold (footnote b)
# Protocol: as §1, §2
# B7H4-IgV/B7H3-IgC [5] = target: T3, B7H4-IgV/B7H3-IgC; assay: flow cytometry, HEK cells transiently transfected with B7H4-IgV/B7H3-IgC, PE anti-human IgG F(ab')2 [panel B7H4-IgV/B7H3-IgC]
# Protocol: After washing twice in FACS buffer, cells were incubated with secondary antibody at 4° C. for 30 min. […] Next, cells were washed twice in FACS buffer, re-suspended in 20 μL FACS buffer and analyzed on an iQue Screener (Intellicyt Corporation, USA).
# Further experiments were conducted to study the B7H4 domain specificity of the B7H4 antibodies in more detail, by analysis of full dose-response curves.
# [6] = target: T2, recombinant hIgG1 Fc-tagged cynomolgus …; assay: BLI (Octet HTX); Fc-tagged cynomolgus B7H4 coupled to AR2G sensor, bispecific antibody in solution (monovalent B7H4 binding); 1st experiment
# Protocol: as §1
# Data were acquired using Data Acquisition Software v9.0.0.49d (FortéBio) and analyzed with Data Analysis Software v9.0.0.12 (FortéBio). Data traces were corrected per antibody by subtraction of the reference sensor. The Y-axis was aligned to the last 10 s of the baseline, Interstep Correction alignment to dissociation and Savitzky-Golay filtering were applied. Data traces with a response<0.05 nm were excluded from analysis. The data was fitted with the 1:1 Global Full fit model using a window of interest for the association and dissociation times set at 100 s and 200 s respectively.
# B7H4-IgV/B7H3-IgC [7] = target: T3, B7H4-IgV/B7H3-IgC; assay: flow cytometry, transiently transfected HEK cells, MFI as % of the control antibody of the panel [continued) III]
# Protocol: (§5) Expression constructs were prepared encoding human B7H4, human B7H3 (Uniprot accession no. Q5ZPR3-1; SEQ ID NO: 9), or a chimeric molecule containing the IgV domain of B7H3 and the IgC domain of B7H4 (B7H3-IgV/B7H4-IgC; SEQ ID NO: 11), or a chimeric molecule containing the IgV domain of B7H4 and the IgC domain of B7H3 (B7H4-IgV/B7H3-IgC; SEQ ID NO: 10). HEK cells were transiently transfected to express these constructs.
# (§6) Cells (3×10⁴ cell/well) were incubated in polystyrene 96-well round-bottom plates (Greiner bio-one, cat. no. 650101) with serial dilutions of antibodies (range 0.0046 to 10 μg/mL in 3-fold dilution steps) in 50 μL PBS/0.1% BSA/0.02% azide (FACS buffer) at 4° C. for 30 min. After washing twice in FACS buffer, cells were incubated with secondary antibody at 4° C. for 30 min. As a secondary antibody, R-Phycoerythrin (PE)-conjugated goat-anti-human IgG F(ab′)₂ (1:500 in staining buffer; Jackson ImmunoResearch Laboratories, Inc., West Grove, PA, cat. no. 109-116-098) was used. Next, cells were washed twice in FACS buffer, re-suspended in 20 μL FACS buffer and analyzed on an iQue Screener (Intellicyt Corporation, USA).
# B7H3 = target: T4, B7H3; assay: flow cytometry, transiently transfected HEK cells, MFI as % of IgG1-B7H3-BRCA84D
# Protocol: as §5, §6
# [8] = target: T1, human B7H4, full length, on cells; assay: cell-based or functional assay
# [9] = target: T1, human B7H4, full length, on cells; assay: flow cytometry on SK-BR3 tumor cells [panel SK-BR3 cells]
# Protocol: as §3, §4
binder,measurement,setting,value
B1,binding result,[1],binds
B2,koff,[2],0.0025 s⁻¹
same,kon,[2],420000 M⁻¹ s⁻¹
same,EC50 (read off the curve),[3],~0.6 µg/mL
same,Kd,[4],6 nM
same,EC50 (read off the curve),B7H4-IgV/B7H3-IgC [5],~1 µg/mL
B3,Kd,[6],21 nM
same,koff,[6],0.003 s⁻¹
same,kon,[6],140000 M⁻¹ s⁻¹
same,binding result,B7H4-IgV/B7H3-IgC [7],no binding (tested: 10 µg/mL)
same,binding result,B7H3,no binding (tested: 10 µg/mL)
same,"IC50 of T cell-mediated cytotoxicity, HCC1954 cells, highest of 4 donors",[8],0.008 µg/mL
same,"IC50 of T cell-mediated cytotoxicity, HCC1954 cells, lowest of 4 donors",[8],0.001 µg/mL
same,"IC50 of T cell-mediated cytotoxicity, MCF7 cells, highest of 4 donors",[8],0.025 µg/mL
same,"IC50 of T cell-mediated cytotoxicity, MCF7 cells, lowest of 4 donors",[8],0.012 µg/mL
same,"IC50 of T cell-mediated cytotoxicity, MDA-MB-468 cells, highest of 4 donors",[8],0.004 µg/mL
same,"IC50 of T cell-mediated cytotoxicity, MDA-MB-468 cells, lowest of 4 donors",[8],0.001 µg/mL
same,"IC50 of T cell-mediated cytotoxicity, OVCAR3 cells, highest of 4 donors",[8],0.012 µg/mL
same,"IC50 of T cell-mediated cytotoxicity, OVCAR3 cells, lowest of 4 donors",[8],0.003 µg/mL
same,"IC50 of T cell-mediated cytotoxicity, SK-BR3 cells, highest of 4 donors",[8],0.016 µg/mL
same,"IC50 of T cell-mediated cytotoxicity, SK-BR3 cells, lowest of 4 donors",[8],0.002 µg/mL
same,EC50 (read off the curve),[9],~1 µg/mL
